Assay results reported in a protein production outcome set (Wang et al. 2014).

Test: label from the status in PepcDB records
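Note: failed if final PepcDB status was selected cloned or expressed and not failed if soluble or beyond.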

Row | Sequence | protein production
1 | MLKQTSDSPVGTLFIIIEDAHITKISYDEPTNWEILAGEKGEIAIYQQLLEQLAGYFEGEREVFDLPIFLQGTPFQQRVWQALSEIPYGVVVSYKDIAIAAGSPKAVQAVGQANRANPIPILIPCHRCVKSDGALGGYNGADIDKKQYLLALEKGLRLS | failed
2 | MTSIWGQIQHILQNTLAPGLFKVWISPLAGEVDGSTLRVEAPNEFVAGWVRDRLFEDIRTAACGVIGDTVEVVVTAGAPAAAAPRPVLAPRPAVVEVVPTAAPVPSVVPAVEARPSGHAPRRLSAETQQAQEQLGLPLDWAPVPQSRTNWRFSFDDFIVGPNNELACAAARGMCRDGLMTDTLFLSSGPGLGKTHLLHAVGRSLCESSNRSNPNVAYLTAEEFASRLIAALKARDVERFKARYRDVDVLLLEDVHFLQGKEKMQDEVLATVKALQSRGSRIVFSSSFAARDLKNVDNQLVSRFCSGFLAGIERPDFDTRRRILREKARIYQVMLPDNVTDLLAERISTDVRQIESCLHNLILKAKLLNRQISLEMAFEIIGNYAQAETQLDFEGIVRMVCEGFGLSPEQLNSRSRKREYVVARNAAYLLARKHTDLSLKEIGDRFNRRHSTVLKGITALEREMNRETPLGRQVANTISLLERNGRITHARH | failed
3 | MATFDTRHRTALTMSADRLEQLKTFHEEDPEDPFTRYALAQEHLKHDNASRALALFEELVETDPDYVGTYYHLGKLYERLDRTDDAIDTYAQGIEVAREEGTQKDLSELQDAKLKAEGLEHHHHHH | not failed
4 | MTGPTPTEAVDITVSVGGFKVGDQNYPINPKITFTNNTGQAIPGGTEFQFDIPVSAPDNAKDQSGGGLKVIASGHTRANNIGGLDGVMHRVSFSLPAWKDLPAGGTYELDMVYYLPISGPANYSVISGGKEFAFKFEQPDLPIGDLNAGTGGGGTTEPGSCDTAGLVTYPNLPQTDLEHHHHHH | failed
5 | MPDVLPHPDGPDSTARPWCSVVIPVLHEAVTIAAQVAHVRHVAARCGMEVEVVVADGAKERDTLAALPEGCCTAVASCPGRARQMNAGAGKARGETLLFLHADTHLPPEAFTLLRRARQAGIRAGAFRLGIAATGLWFRLVERLACWRNRLVRTPYGDQAQFFDAALFRAVGGYPDQPLMEDVEVMRRLRKAGERIVILPGRVETSARRWFVEGPLRCTLRNLCLRLLYALGVPAHALSRWYRAHKERP | failed
6 | MGNQLAIQMNSDEDDDFDSSDNELGFNVINFTVNAMDLRSDYCSSEMPVIRGKPDLVKFQKTDMYKEIQASSGLVSNPNNRWNLVHALQQRENGLASPHSASFSKNQQRYISNLYIPNKKATRLMSLESKIFVTKFNRSGSKLLTACQDGFVRIYDGAKGTYHLLNRIRARDVEWSIIDADFSPNGEHFAYSTWSRSLFIMPVNGGEDDCQWIDVNGLPSHRLAIFSLRYSPTGDKIIGGSNNSTVIVTDIRTRNTQILRTHRMPGKDVNSVCFLHDKDPNVIIAGCDDGLLKVYDLRTTFRSRDLSKSVASFIGHYDGITYIDSRNDGYHVLSNSKDQSIKIWDIRQPSNMRNRSRSRQQVDPTTWDYRWNRVPREFYNPHKPLEGDSSIMTYRGHRVTKTLLRAKFSPMEQTGQRYIYTGCATGRIIIYDVLTGKIQEAIEGHRTVIRDLDWHPDRSEIVSGSWDTHVHLNNFSRSNANRPVKRSHSSDHDKKPLRRSRRLANRNVTPD | failed
7 | MQKALFNLVLRGLEKQVPATGLGLFRLAFGLVAFQEICFLYYFRQLIFDPVPYLDIASPSVHLFLVLWAIAALCLALGLYTRLAAIANYLFWLVFTVFTPMWKDFDGGFDQLMLGSSLLLIFLPSERAWSLDRLRLAWRHSTVDRCYALPRTVPVLCYFLPLAVSLGFIYFDSVIHKLFAEFWRNGLGPWLPSSLPYYMSPLDMGWLLEIEPLQRAIGYTIIAFQFAFLFLLYFRRFRVPLMLVGLSLHAGIIVSLNIYPFGFGMLVHYFLMVPFRWWRTLGRTLRPAEPALQVFYDERCPLCLKTVLAIEHFDVFRAVEFRGLQTHAATAPALEDIPERDLLGDLYAVDREGRRYSGVATYARILVAMRYPALAGLAMRLPGLATIADRVYRRIADNRVRLGCDASCAPAPGRTEPDLAQRIGRWVGGSLQQRANRISRMLVVVLILQLNCTLHYAILYRLGVDTKANEAGQVLTMLSNALISASHTFLGITPHPLYLHDHFQGYEHILGIVHLDADGKERWLPFVDEEGRIVSPNWGRVHSMWANVAVTRHMDPRRLDKFVRKVTAFWGTRLGLDLNRTTFVLKLKTVKAPMDWEPGLRRYNLAQPWEDVGRAVWRDGEMRLELDRDLEALSAD | failed
8 | MADAPDTERQAVEPEAGDVLSVSQLNDRIASVVEDAPALDGVRCIGEVTDLHQNSTALYFTLTDGDAELPCMIWANRYRKMDAELEDGTEVILEGDIDYWTEGGKIDLKPWEVIVVGDGDQAAAVERLRSELEERGWFDDEQKQRPPAFPERVGVVTSLRGDARYDIQSAIHEQDPTVDILVKDATVQGSEAPTSIANGIHHLDRSEDVDSIIVGRGGGSDSNLQAFNTERVAEAIFTANTPIVTAIGHTDDRLIADRVADMAAITPTAAGEYIAKSRNDFLASDIGPLEQQLEAAYETFEQEHEHEQELAEAVEEATAPEGLSPVYYKVAIVVLLVLLLLITALWLGVI | failed
9 | MLYLFPLLAVVIWAGNAIVNKLSFGIIAPEAIAFYRWFFAMLILTPFMLKSVWKNRRRIIPLLPKLATLASLGMVLNQSLAYFAAATTTATNMALINSLVPMISLFLAVPLLKQRLSPLVLGGSVISLLGLVFMLSHGDIANLAIGVTEGDLLLLISAFVYALYGVLLKRWQLPISTWESVYIQGIIAVLMLTPLLFSAPSIAISSQATPLIVYAAFGASLIAPWAWINGINKLGAERTSIFFNLMPILAAIFAAIILNETLAIYHYLGGTMVILGVMLVQIKPKPKTTTIITCAE | failed
10 | MKMVLFSFLLGCCSLLVSAQQPVDYVNPFIGTSNYGTTNPGAICPQGMMSVTPFNVMGSKSNKFDKDSQWWSTPYSADNNFFTGYAHVNLSGVGCPEMGSLLLMPTSGELNVDYHAYGSEYKNEVAHPGYYSNILTKYDIKTEATASMRTGLTRFTFPKGQGNILLNLGEGLTNETGATVRMVSDTEIEGSKLLGTFCYNPQAVFPIYFVMKLSKAPKQAGYWKKQREMKGVEAEWDAYSGKYKLYTKYDREMSGDDIGVWFKYDTEEDEVIEVKMGVSFVSIENARLNMNTEQPDFNFDKVRAAAGKMWNDDLSRVMVEGGTNDDKTIFYTAIYHLLIHPNIIQDVNGEYPMMESLKVGHTTGNRYTVFSLWDTYRNVSTLMTLLYPEKQLDIIRTMIDMYKESGWLPKWELYGRETLTMEGDPSIPYIVDAYMRGLRDYDIETAYEGMCKGATTPGEFNLLRPDNNDYMSKGYVPLREQYDNSVSHALEYYIADWNLSLLADALGKKEDAKLFRERAMGYKHYYCKEFGTLRPILPDGTFYSPFDPKQGENFEPSPGFHEGNAWNYTFYVPHDIKGLAKLMGGQKKFVDKLQMVFDKGYYDMANEPDIAYPYLFSYFKGEAWRTQKLVCELLGKYYHNAPNGLPGNDDTGTMSTWAIFSMMGFYPACPGDLDYVVTSPTFNKVTIRLDEKFYPKGELVIESARKTPEDIYIKEVTAGGKKLKGYTISQDELVNAGTLRFTLENKH | failed
11 | MNIDLSAIFAQYEALVAETDALFERVRALHPDCVTCGLGCSDCCHAMFDLSLVEAMYLNGKFAASFDFGPERSAVLERASDADRHAYRIKRRMYRESEDGRPAEDILAEAARERVRCPLLGEGDACVLYAHRPITCRLYGIPTAIGGKGHTCGKTAFRAGEKYPTVAVDRIQDRLAALSKEIAVAVGSRFSELHQVYVPVSMALLTRYDDAYLGIGKPKRDD | failed
12 | LYDQGGPVEILPFLYLGSAYHASRKDMLDALGITALINVSANCPNHFEGHYQYKSIPVEDNHKADISSWFNEAIDFIDSIKNAGGRVFVHCQAGISRSATICLAYLMRTNRVKLDEAFEFVKQRRSIISPNFSFMGQLLQFESQVLAPHCSAEAGSPAMAVLDRGTSTTTVFNFPVSIPVHSTNSALSYLQSPITTSPSC | failed
13 | MKMEELFKKHKIVAVLRANSVEEAKEKALAVFEGGVHLIEITFTVPDADTVIKELSFLKEKGAIIGAGTVTSVEQCRKAVESGAEFIVSPHLDEEISQFCKEKGVFYMPGVMTPTELVKAMKLGHTILKLFPGEVVGPQFVKAMKGPFPNVKFVPTGGVNLDNVCEWFKAGVLAVGVGSALVKGTPDEVREKAKAFVEKIRGCTE | not failed
14 | MDDLIRLLEEMGIPFAYDHFAEGESPDPPFICYLLPQSDNFSADGKVYLKVSSVNIELYTDCKDLSVEQKLEAVLDTHGIFYDKTKVWIESEKLYEVLYSFEMEVLEHHHHHH | failed
15 | MPKLDLDSIERRIGSVYPGRLNAAMDGRSSLRLGDAGGLSQFGVNLVRLEPGAKSSLRHYHMEQDEFVMVTEGALVLVDDQGEHPMVPGDCAAFPAGDPNGHQFVNRTDAPATFLVVGTRTPTETAYYSDMDMMVKQDASGFAFTRKDGSPLTADQIGDDNE | not failed
16 | MRVSCLSLPWHTPKALLHETITQTYLLWHIVLEHMDIVIVGAGRVGSRTARVVTNEDHAVTVIEQDYDRAERARTEGFDVVEGDGTSEDTLLDAGIDTADAIGALTSDLNTNFIACMVGNHHDCRTVLRIDEDYREDIYRKYADEVDEIVYPERLGAIGAKNALLGGNVTAIADLAEHLQVVQLTVTDEAPMRGYSISELELPAGARLLAFGKHDASLALPLPSETLETGDRIAVLAEFDTLDSVRQILVGNAPPTEVA | failed
17 | MPSDSLRVGVLTGGGDCPGINAALRAVTKSLTLQHDAEVLGFLDGFRGVVDRNVEPLHYRDVSGILTRGGTILGASNKADPFNYLPRGGADVSAQVMRTYRTLDLDALVAIGGDGTMSIAHRLTDLGVDIVGVPKTIDNDLVGTDRTVGFDTAVSTATDAIDRIHTTAQSHHRVMIVETMGRYSGWIALHAGVASGTDVILLPEIEYEVETVADVCRDRERSGQRFTIVAVAEGARRKEGDYVVQERGDEYTDSIRLGGISRVLADQLREHLDTSIRTTVLGHMQRGGSPTAYDRTLATTLGTRAATLVAEGTTGVMVAVQNDAFTQVPLDEIAGKTRTVPLDDPLIASGLDVGTSFGVAVSDLSEAASHSKPASPIQP | failed
18 | GTVSATSPNKCKRPMNAFMLFAKKYRVEYTQMYPGKDNRAISVILGDRWKKMKNEERRMYTLEAKALAEEQKRLNPDCWK | not failed
19 | MLQQLFASPILSVQTLHPSYEDHASDVFLVQTKDEEVIVRSSKMTEEPNNDFWWGCKNLFGIDPRNVHHLEYIHELLKKHTNLPIPTILQKHVLNGRKYVSVEKLTGSTLQSFVGQSDSILFSLGKGLAEIHSFQAEFIGNPSGTFQVPLEEFKSHILKVSKELVNRFYSDNTSIRNAFSTFESQLSSLPTPKEATLVLIDMDPTQFLSDGTTITGLVDTEAYAVAPRELDFISLEYVFTEKEAHAFKQGYETIMPIPNLVECRHPYRYLYRLLSIQGSVELEKWLSHPSYF | failed
20 | MMKNMILPIAFTALIASMTACSDETDPILTQKNWDGTATYFQSSDEHGFSMYYKPQVGFVGDPMPFYDPVAKDFKVMYLQDYRPNPEATYHPIFGVATKDGATYESLGELISCGGRDEQDAAIGTGGTIYNPADKLYYTFYTGNKFKPSSDQNAQVVMVATSPDFKTWTKNRTFYLKGDTYGYDKNDFRDPFLFQTEDGVYHMLIATRKNGKGHIAEFTSADLKEWESAGTFMTMMWDRFYECPDVFKMGDWWYLIYSEQASFMRKVQYFKGRTLEDLKATTANDAGIWPDNREGMLDSRAFYAGKTASDGTNRYIWGWCPTRAGNDNGNVGDVEPEWAGNLVAQRLIQHEDGTLTLGVPDAIDRKYTSAQEVKVMAKDGNMIESGKTYTLGEGASVIFNRLKVHNKISFTVKTASNTDRFGISFVRGTDSASWYSIHVNADEGKANFEKDGDDAKYLFDNKFNIPADNEYRVTIYSDQSVCVTYINDQLSFTNRIYQMQKNPWSLCCYKGEITVSDVQVSTY | failed
21 | FLILLRKTLEQLQEKDTGNIFSEPVPLSEVPDYLDHIKKPMDFFTMKQNLEAYRYLNFDDFEEDFNLIVSNCLKYNAKDTIFYRAAVRLREQGGAVLRQARRQAEKMG | not failed
